Measured values from the supplement of paper PMC10126150.
± gives the standard deviation of the averaged measurements.

system: ATP; test: switch fluorescence ratio, 500 uM ATP over buffer (Cy3 cluster intensity, sum of 5 cycles each) (fold (ratio)); higher = stronger signal-on switching upon ATP binding; sequences stand for … in TCGTCGGCAGCGTCAGATGTGTATAAGAGACAGTTTTTTTTTTTTTTTTTTTTTTTTT…TC; conditions: aptamer strand: ATP DNA aptamer (quencher-CACCTGGGGGAGTATTGCGGAGGAAGG + anchor), 100 nM annealed; ATP concentration: 500 uM
In short: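 Five buffer/ATP imaging cycles were run on Cy3-labelled switching-strand clusters on a modified Illumina MiSeq flow-cell, with NaOH stripping and re-annealing between cycles. In each cycle, clusters annealed to 100 nM quencher-labelled ATP aptamer were imaged in selection buffer, then after 15 min with 500 uM ATP at 22 °C. Per cluster, the fluorescence ratio is summed target-cycle over summed buffer-cycle Cy3 intensity, averaged per switch-domain sequence. Only clusters within 100-1000 RFU were kept.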
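Further: ATP exposure 15 min at 22 °C before imaging.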

Sequence | switch fluorescence ratio
CATGTAAGGG | 1.003 ± 0.0053
GTTTTGGGAA | 1.02 ± 0.026
CGATGGGTCG | 1 ± 0.066
AACGGGTAGC | 0.993 ± 0.029
CGATGATCGG | 1 ± 0.016
AGGGATACCT | 1.04 ± 0.018
TCGGATCCAA | 1.048 ± 0.0022
TATTTGTGCG | 0.988 ± 0.035
GGAAGGTTCG | 1.01 ± 0.033
AAGGGGAGTC | 1.01 ± 0.0044
GTTTGGTCGG | 1.04 ± 0.035
GCTGATTTGT | 0.989 ± 0.038
CATTTAGACG | 1.01 ± 0.11
TGAAGTTTTG | 1.02 ± 0.027
ATTCATGGGT | 0.998 ± 0.024
ATGGGCCCCT | 0.987 ± 0.025
GAGATGTGCG | 0.9319 ± 0.008
GATTAAGAGC | 0.999 ± 0.044
TCTTATTTTT | 1.01 ± 0.025
GAAGTCGGAT | 0.979 ± 0.019
TGGCTTACAT | 1.0268 ± 0.00039
AACCATGGGT | 1.01 ± 0.03
GTGGGAGGTT | 0.948 ± 0.036
TATATTGAAC | 1.022 ± 0.0028
AAGACCGTTG | 0.967 ± 0.017

Sequence | switch fluorescence ratio
AAACTGGGGT | 0.999 ± 0.0016
AAGGGCCTGG | 0.982 ± 0.029
GCTGGTACTG | 0.986 ± 0.037
TGTGCTTTGT | 1 ± 0.016
TTACCTAGAG | 1.04 ± 0.038
TCCATTTTGG | 0.998 ± 0.039
CCACAAGGGG | 1.02 ± 0.019
GCTTGGGGGT | 0.987 ± 0.018
ATGTTAGGAA | 1 ± 0.0065
TTGTTTAAGA | 1.03 ± 0.082
GGGGGCGCGA | 1.02 ± 0.035
AAGAATTGGG | 1.06 ± 0.11
TAGTCTTTAG | 1.01 ± 0.0072
CTTGGGGCTC | 0.9457 ± 0.0082
ATTTTTTTG | 0.955 ± 0.021
GGTATAGGGG | 0.995 ± 0.054
TCACGCTTGA | 1.05 ± 0.052
TTTTTGGGTA | 0.973 ± 0.027
GTTATTACGT | 1.03 ± 0.021
GATTGAAAGA | 0.986 ± 0.026
ATTTAAAATC | 0.9614 ± 0.0045
GATAGAATGA | 1.014 ± 0.0096
TTCAATCCCG | 0.991 ± 0.069
TAGTCGGCGC | 1 ± 0.047
TTTTTCACGT | 1.02 ± 0.029

Sequence | switch fluorescence ratio
TAAAGTTCAG | 0.9685 ± 0.0073
GGCGCGGAGG | 0.992 ± 0.019
GCGTTTTTTG | 0.9912 ± 0.0054
CGATGGGATA | 1.03 ± 0.02
CGTATTTAGT | 0.98 ± 0.035
GCTATCATGG | 0.9727 ± 0.0076
AAGGCAACGC | 0.98 ± 0.056
TCATATTTAT | 0.996 ± 0.024
ATACACATAG | 1.04 ± 0.014
TATGATATTA | 0.9907 ± 0.0064
GGGAGGCTCG | 1 ± 0.0082
GGCCTGGGCT | 1.02 ± 0.061
GAGTTTTGAA | 0.997 ± 0.018
GTGGAATAAT | 0.981 ± 0.015
ATTAGGGGGT | 0.988 ± 0.036
GGGGATGGCT | 0.992 ± 0.039
GGGTGGGCCA | 0.969 ± 0.035
TTATTTTAGT | 1 ± 0.017
GGAAGAAAAC | 1.008 ± 0.0045
ATAGTGGGTC | 1.04 ± 0.025
GGGTGATGGT | 0.964 ± 0.053
GGACTCAGAA | 0.9867 ± 0.0045
GGATATTGGC | 0.977 ± 0.092
AATAAGGTTG | 0.982 ± 0.04
TGGGGGGGGG | 1.02 ± 0.079

Sequence | switch fluorescence ratio
GGGTTTGTTA | 1 ± 0.018
GCTGGTTGGG | 0.98 ± 0.014
ACTCGGAGCG | 1.01 ± 0.038
TGGCACCATT | 1.06 ± 0.047
ACTAAAGGGC | 1.07 ± 0.034
TTTATTCAGG | 1.02 ± 0.032
TATTGGGGGC | 1 ± 0.018
TTTAAGTGCG | 1.05 ± 0.09
ATGGTCGAGC | 0.9822 ± 0.0076
CAGTCGCCAG | 1.02 ± 0.0024
CGTTGTTATG | 0.9852 ± 0.0067
GATTCCATAT | 1 ± 0.03
CGGGTCGAGC | 1 ± 0.03
ATTGGGAAAG | 1.02 ± 0.041
GTTTTGTATT | 1 ± 0.029
AACGACCCCC | 1.74 ± 0.31
TATATTTGTT | 0.997 ± 0.039
AAAGATATCT | 0.979 ± 0.022
GGAATGTGTT | 0.972 ± 0.013
CGTAATTTTC | 1.09 ± 0.083
GGGAAATAGT | 0.9877 ± 0.0057
AACGTGATTA | 1.07 ± 0.023
GACTATAATT | 1.026 ± 0.0032
TAGGGGAAGA | 1.003 ± 0.0076
TATAAAAACG | 1.11 ± 0.2

Sequence | switch fluorescence ratio
CGTATCGTGA | 1.01 ± 0.041
AGTTTTAAGC | 1.01 ± 0.043
GGGCGTTTTT | 0.992 ± 0.017
TCCTTTTTTA | 1.01 ± 0.015
TTTTGAAAGT | 1.07 ± 0.14
GGGATATGTT | 0.9921 ± 0.0071
GGCTGCAATG | 1.39 ± 0.069
TGCCTGGGGA | 1.2 ± 0.25
GAAGGAAAAG | 0.992 ± 0.099
GCAGGGAGTT | 0.966 ± 0.029
ATGGGAGCCA | 1 ± 0.028
ATATAAATGT | 1.019 ± 0.0066
ATTCAGCATT | 1.05 ± 0.02
TGTACTAGGA | 0.968 ± 0.018
TTTTCAACCA | 1.06 ± 0.043
TATTCATCCA | 1.01 ± 0.02
TAAACTGCGG | 1.03 ± 0.02
TTGCCTGTG | 1.03 ± 0.033
TTATTGTACT | 1.008 ± 0.0073
AACGGGGATA | 1.049 ± 0.0065
CTGACGGCTT | 1.056 ± 0.0068
AGGCTATATT | 0.975 ± 0.01
AGAGAGATCC | 1.02 ± 0.058
TACTTCTTTT | 0.958 ± 0.015
AATAGGTGTT | 1.07 ± 0.015

Sequence | switch fluorescence ratio
GATTTAAGAT | 1.01 ± 0.029
GATAGGAAGG | 0.964 ± 0.052
GGTGTGTACG | 1.28 ± 0.41
CGGCTACTTT | 1.03 ± 0.038
TCAAGTTACA | 1.078 ± 0.0041
CAGGCTAAAG | 0.989 ± 0.032
ATTTGGATAA | 0.9893 ± 0.0066
GGAGCCCCGA | 0.9814 ± 0.0076
GGACAGTGTA | 1.01 ± 0.02
TCTTGTAGCG | 0.986 ± 0.016
AGGGTGTAGA | 1.016 ± 0.0045
CCAGGTGTCT | 2.16 ± 0.26
TGGCTTTGCT | 0.962 ± 0.015
TGATAATCGG | 0.997 ± 0.036
TTGTAAATT | 1.02 ± 0.043
TATCGAAGGT | 0.986 ± 0.017
AGTAGGCAAA | 1.01 ± 0.014
AAATTTGGTG | 1.14 ± 0.14
GTCAAAGCCA | 1.02 ± 0.019
GCTACAGCAT | 1.06 ± 0.031
TTCCGGGACG | 1.027 ± 0.0033
GGTGGGGCTT | 0.998 ± 0.025
ATGGTATTTC | 0.9887 ± 0.0013
GTGGGGATGT | 1.01 ± 0.024
TGCGACTTTG | 1.03 ± 0.018

Sequence | switch fluorescence ratio
ACGTATTTTC | 1.171 ± 0.0024
GACCGATTGT | 1.03 ± 0.065
CAGGGGGATA | 1.3 ± 0.43
CGTACTTGTT | 1.01 ± 0.035
TTCTTCGTTA | 1.03 ± 0.019
TTAAAACGAA | 1.01 ± 0.024
GGGGTTCCTC | 0.9919 ± 0.0096
ATTGCGGCAC | 1.05 ± 0.024
GTATGTCGTT | 0.968 ± 0.034
GTACGGGAAG | 1.19 ± 0.1
GCGTGTCTAT | 0.991 ± 0.019
TCGAAAGTTA | 1.04 ± 0.022
GCTGTACGCT | 0.9539 ± 0.0027
CCAAGTCCTG | 0.97 ± 0.092
AAATAAAATG | 0.932 ± 0.11
TATGAATATT | 0.985 ± 0.027
GAGTACGGGA | 1.09 ± 0.059
TGTGAGGGCG | 1.06 ± 0.015
TTTGGGAGGA | 1.02 ± 0.047
CCTGGGCAAG | 3.81 ± 0.36
AGGGTCGCGT | 0.989 ± 0.034
TATAGGGGGC | 1.03 ± 0.05
GATTAGTGTG | 0.995 ± 0.05
AGTTTGTTTG | 1.006 ± 0.009
GGAAAGGGGT | 1.03 ± 0.082

Sequence | switch fluorescence ratio
GGTTCGCGGT | 1.02 ± 0.03
GATTCGCTAA | 1.12 ± 0.13
ATTGAGTTGT | 0.947 ± 0.066
CGGGTCTAGC | 1.01 ± 0.021
AGGGGATTGC | 0.988 ± 0.019
TAGTTACTGG | 1.05 ± 0.021
GTGATCGGGT | 1.02 ± 0.015
AGATTAATTT | 0.986 ± 0.021
GAGGTTTTGG | 1.03 ± 0.057
AGAGATGGTT | 0.979 ± 0.012
AGTGTGCATG | 1.03 ± 0.013
ATCGGATTGG | 1.03 ± 0.072
AGTTGAAGTT | 1.02 ± 0.039
TGGCGGAGTC | 1 ± 0.022
TGTTTTAAGT | 0.999 ± 0.036
GTGGGCCGAG | 1.021 ± 0.0076
TTTTATAAAT | 1.02 ± 0.0071
AAGGGGCATT | 1.01 ± 0.011
CCGTTGCGTG | 1 ± 0.036
CCATAAAGGG | 1.07 ± 0.098
AGTAGGTTTT | 1.04 ± 0.078
GAGTGGGATG | 0.9633 ± 0.0035
AATAACTAGG | 1 ± 0.025
AGTATGTTTT | 0.995 ± 0.0076
TCAAGTAGAG | 0.99 ± 0.011
